Results on two molecules are retold here after patent US20190099499A1 (Pfizer, published 2019).

In experiment [1] the target is T1, human FcRn, biotinylated through an engineered Avi-tag (human, UniProt P55899 24-297; P61769 21-119).
T1 construct: not shown: engineered Avi-tag
The experiment in a line: SPR (BIAcore), steady-state, pH 6.0; biotinylated human FcRn on streptavidin chip, antibody injected. On the technique in general: In SPR one partner is held on a chip, and binding of the other changes the refractive index at the surface.

In experiment [2] the target is T2, human Fc-gamma receptor I (CD64) (human, UniProt P12314 16-288, limits assumed).
T2 construct: Soluble receptor injected over captured antibody; also called FcγRI (CD64)
T2 sequence (P12314 16-288 limits assumed): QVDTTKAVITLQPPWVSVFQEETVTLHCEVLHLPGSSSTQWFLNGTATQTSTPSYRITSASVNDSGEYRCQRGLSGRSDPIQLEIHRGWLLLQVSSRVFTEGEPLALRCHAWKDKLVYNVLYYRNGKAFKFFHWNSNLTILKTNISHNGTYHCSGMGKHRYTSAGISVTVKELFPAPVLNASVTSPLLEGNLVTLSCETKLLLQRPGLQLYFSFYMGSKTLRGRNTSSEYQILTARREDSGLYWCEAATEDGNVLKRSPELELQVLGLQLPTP
The experiment in a line: SPR (BIAcore), antibody captured on immobilized CD33 ECD, receptor injected; kinetic fit.
Experimental: (§1) Various concentrations of the Fcγ receptors FcγIIa (CD32a), FcγIIb(CD32b), FcγIIIa (CD16a) and FcγRI (CD64) were injected over the surface and binding was determined.

The target of experiment [3] is T3, human Fc-gamma receptor IIb (CD32b) (human, UniProt P31994 43-217).
T3 construct: Soluble receptor injected over captured antibody; also called FcγIIb(CD32b)
T3 sequence (looked up): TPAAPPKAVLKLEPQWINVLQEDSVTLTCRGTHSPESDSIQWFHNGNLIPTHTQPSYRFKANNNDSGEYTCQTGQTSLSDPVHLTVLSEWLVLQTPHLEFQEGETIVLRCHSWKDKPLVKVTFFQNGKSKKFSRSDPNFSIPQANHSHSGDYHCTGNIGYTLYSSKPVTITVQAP
The experiment in a line: SPR (BIAcore), antibody captured on immobilized CD33 ECD, receptor injected; steady state fit.
Experimental: as §1

For experiment [4], the target named is T4, human Fc-gamma receptor IIIa (CD16a) (human, UniProt P08637 17-208).
T4 construct: Soluble receptor injected over captured antibody; also called FcγIIIa (CD16); FcγIIIa (CD16a)
T4 sequence (P08637 17-208 limits assumed): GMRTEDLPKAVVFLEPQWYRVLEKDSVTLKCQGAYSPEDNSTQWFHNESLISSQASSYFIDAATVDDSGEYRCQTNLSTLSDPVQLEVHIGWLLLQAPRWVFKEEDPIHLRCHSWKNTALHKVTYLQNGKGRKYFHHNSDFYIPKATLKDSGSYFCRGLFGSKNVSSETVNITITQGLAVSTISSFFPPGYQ
The experiment is described as above.
Experimental: as §1

Experiment [5] addresses T5, human Fc-gamma receptor IIa (CD32a) (human, UniProt P12318 34-217).
T5 construct: Soluble receptor injected over captured antibody; also called FcγIIa (CD32a)
T5 sequence (looked up): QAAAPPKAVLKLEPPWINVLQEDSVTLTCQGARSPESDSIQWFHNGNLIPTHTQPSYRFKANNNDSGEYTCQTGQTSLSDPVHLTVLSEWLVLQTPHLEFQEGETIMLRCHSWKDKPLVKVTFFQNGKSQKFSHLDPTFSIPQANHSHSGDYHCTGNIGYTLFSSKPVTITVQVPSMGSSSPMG
The experiment is described as above.
Experimental: as §1

Experiment [6] addresses T1, human FcRn, biotinylated through an …. The experiment can be described thus: SPR (BIAcore), steady-state, pH 6.0; biotinylated human FcRn on streptavidin chip, ADC injected.
Text: BIAcore® technology utilizes changes in the refractive index at the surface layer of a sensor upon binding of the anti-CD33 derived monoclonal antibodies or their respective ADCs to human FcRn protein immobilized on the layer. Binding was detected by surface plasmon resonance (SPR) of laser light refracting from the surface. Human FcRn was specifically biotinylated through an engineered Avi-tag using the BirA reagent (Catalog #: BIRA500, Avidity, LLC, Aurora, Colo.) and immobilized onto a streptavidin (SA) sensor chip to enable uniform orientation of the FcRn protein on the sensor.
In experiment [7] the target is T2, human Fc-gamma receptor I (CD64). The experiment in a line: SPR (BIAcore), ADC captured on immobilized CD33 ECD, receptor injected; kinetic fit.
Experimental: as §1
The target in experiment [8] is T3, human Fc-gamma receptor IIb (CD32b). The experiment can be described thus: SPR (BIAcore), ADC captured on immobilized CD33 ECD, receptor injected; steady state fit.
Experimental: as §1
Experiment [9] concerns the target T4, human Fc-gamma receptor IIIa (CD16a). The experiment is described as above.
Experimental: as §1
Experiment [10] deals with T5, human Fc-gamma receptor IIa (CD32a). The description is as above.
Experimental: as §1

T1 sequence (P55899 24-297 limits assumed, change not shown, chain 1 of 2): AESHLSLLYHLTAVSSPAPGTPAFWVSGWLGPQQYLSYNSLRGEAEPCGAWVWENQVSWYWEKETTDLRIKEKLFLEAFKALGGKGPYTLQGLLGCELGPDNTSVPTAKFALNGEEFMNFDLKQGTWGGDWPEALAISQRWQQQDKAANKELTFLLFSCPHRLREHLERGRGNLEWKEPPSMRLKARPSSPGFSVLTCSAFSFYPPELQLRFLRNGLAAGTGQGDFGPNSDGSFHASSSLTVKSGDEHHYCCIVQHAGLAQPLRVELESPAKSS
T1 sequence (P61769 21-119 limits assumed, change not shown, chain 2 of 2): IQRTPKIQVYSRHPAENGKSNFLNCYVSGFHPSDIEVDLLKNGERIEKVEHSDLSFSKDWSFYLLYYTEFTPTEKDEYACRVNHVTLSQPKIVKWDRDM

B1: CD33-(K334C/K392C) antibody (unconjugated) (antibody, human IgG1)
heavy: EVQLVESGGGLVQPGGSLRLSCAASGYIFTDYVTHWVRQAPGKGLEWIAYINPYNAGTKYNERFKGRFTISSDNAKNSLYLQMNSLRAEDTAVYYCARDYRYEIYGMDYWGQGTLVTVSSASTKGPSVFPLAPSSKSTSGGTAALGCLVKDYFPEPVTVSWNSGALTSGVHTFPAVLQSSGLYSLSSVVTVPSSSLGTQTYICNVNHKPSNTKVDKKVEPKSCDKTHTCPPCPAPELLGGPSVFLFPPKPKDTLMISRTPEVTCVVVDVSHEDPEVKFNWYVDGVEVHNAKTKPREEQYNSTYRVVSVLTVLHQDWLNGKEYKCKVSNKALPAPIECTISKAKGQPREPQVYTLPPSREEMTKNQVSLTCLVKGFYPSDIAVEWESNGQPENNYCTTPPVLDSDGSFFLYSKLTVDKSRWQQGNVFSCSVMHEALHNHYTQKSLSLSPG
light: DIQLTQSPSSLSASVGDRVTITCRASSSVGYMHWYQQKPGKAPKLLIYDTSQLASGVPSRFSGSGSGTDFTLTISSLQPEDFATYYCQLWSSNPLTFGGGTKVEIKRTVAAPSVFIFPPSDEQLKSGTASVVCLLNNFYPREAKVQWKVDNALQSGNSQESVTEQDSKDSTYSLSSTLTLSKADYEKHKVYACEVTHQGLSSPVTKSFNRGEC
notes: Human IgG1 with engineered Cys at heavy chain positions 334 and 392 (Eu index of Kabat); also called CD33-(K334C/K392C)-human IgG1 antibody
Usually Kd stands for the concentration at which binding is half-saturated. Read a low Kd as a tighter complex. On to B1, for which the Kd came out at 964 nM in [1]; 0.02 nM in experiment [2]; 3460 nM in experiment [3]; 210 nM in experiment [4]; 900 nM in [5].

B2: CD33-(K334C/K392C)-CPI (CD33-(K334C/K392C)-MalPeg6-vc-PABC-DMAE-CPI ADC) (antibody, human IgG1)
heavy: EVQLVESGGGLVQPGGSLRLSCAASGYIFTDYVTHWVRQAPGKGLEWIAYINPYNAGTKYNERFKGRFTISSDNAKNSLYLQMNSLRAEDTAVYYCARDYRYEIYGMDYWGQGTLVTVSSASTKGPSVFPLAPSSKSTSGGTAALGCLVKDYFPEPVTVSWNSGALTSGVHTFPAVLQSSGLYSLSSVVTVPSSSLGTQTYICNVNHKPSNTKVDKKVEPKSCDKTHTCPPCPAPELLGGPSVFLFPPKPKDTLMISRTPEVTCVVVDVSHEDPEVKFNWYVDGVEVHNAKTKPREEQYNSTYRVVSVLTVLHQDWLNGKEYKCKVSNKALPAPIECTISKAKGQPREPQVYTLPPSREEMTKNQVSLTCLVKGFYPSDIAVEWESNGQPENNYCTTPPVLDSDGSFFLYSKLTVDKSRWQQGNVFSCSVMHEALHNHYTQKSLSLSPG
light: B1 light
modifications: linker-payload MalPeg6-vc-PABC-DMAE-CPI (LP7) on engineered Cys 334 and Cys 392 (Eu index of Kabat); DAR 4.0
notes: Antibody drug conjugate, human IgG1
In the case of B2, the Kd in [6] came out at 1220 nM; in [7] it was 0.17 nM; in [8], 20100 nM; in [9] it was 5650 nM; in [10] it was 12900 nM.
